Values of other authors, collected in publication PMC4456024.

Target: cTnI147-163 (Homo sapiens)
Experiment: NMR titration

Kd: 150 µM
Substance: cTnC (cNTnC) 1-89 (from UniProt P63316)
